# B1: Plastid division protein PDV2 (Arabidopsis thaliana (Mouse-ear cress)), Q9XII1 (parent)
# chain: MEDEEGIGLILARATELRLKISDCIDNSSTTVSDNGDGNEDLSPGEGRKSEIIGNQDKDFDSISSEDVDEAEAERLLRIRDALEALESQLASLQNLRQRQQYEKQLALSEIDYSRKMLLEKLKEYKGKDFEVLRETTTFAGERVDYENDLLLPPYPVHPPLSLGLDNNNGYLSHLPSKKKSDANGFGSGHVRNEAEAKSPNGGSGGSSHGVIRFLGSVAKIVLPIIGVISLLSASGYGPEMRKRGASLNLFGLLPHRATRGKRTPNQCPPGKVLVIEDGEARCLVKERVEIPFDSVVAKRDVTYGYG
# partner: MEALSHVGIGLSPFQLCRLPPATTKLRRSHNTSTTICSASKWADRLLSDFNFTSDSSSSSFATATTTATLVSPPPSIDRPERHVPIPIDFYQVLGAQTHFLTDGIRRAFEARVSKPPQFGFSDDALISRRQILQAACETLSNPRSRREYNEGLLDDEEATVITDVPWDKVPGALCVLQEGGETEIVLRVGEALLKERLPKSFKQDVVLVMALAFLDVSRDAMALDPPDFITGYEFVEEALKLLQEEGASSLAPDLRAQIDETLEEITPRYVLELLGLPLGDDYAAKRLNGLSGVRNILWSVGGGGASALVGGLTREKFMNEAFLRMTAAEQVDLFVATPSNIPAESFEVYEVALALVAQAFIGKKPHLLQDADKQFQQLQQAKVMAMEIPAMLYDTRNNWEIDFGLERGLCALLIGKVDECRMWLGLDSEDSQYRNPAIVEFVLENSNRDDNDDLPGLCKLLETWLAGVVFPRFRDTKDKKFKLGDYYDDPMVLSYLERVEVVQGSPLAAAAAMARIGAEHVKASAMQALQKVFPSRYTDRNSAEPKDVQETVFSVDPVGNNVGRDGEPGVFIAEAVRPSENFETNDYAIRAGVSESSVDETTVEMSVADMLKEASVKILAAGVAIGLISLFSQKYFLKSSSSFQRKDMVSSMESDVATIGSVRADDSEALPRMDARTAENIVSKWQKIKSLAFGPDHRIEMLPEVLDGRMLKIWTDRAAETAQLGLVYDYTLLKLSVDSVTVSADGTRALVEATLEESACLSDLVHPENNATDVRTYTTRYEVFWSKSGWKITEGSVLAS
# Variants of: B1
# Details: with arc6_arath ARC6, Q9FIG9
row,effect of a mutation on the interaction,Variant
1,decreasing interaction,MEDEEGIGLILARATELRLKISDCIDNSSTTVSDNGDGNEDLSPGEGRKSEIIGNQDKDFDSISSEDVDEAEAERLLRIRDALEALESQLASLQNLRQRQQYEKQLALSEIDYSRKMLLEKLKEYKGKDFEVLRETTTFAGERVDYENDLLLPPYPVHPPLSLGLDNNNGYLSHLPSKKKSDANGFGSGHVRNEAEAKSPNGGSGGSSHGVIRFLGSVAKIVLPIIGVISLLSASGYGPEMRKRGASLNLFGLLPHRATRGKRTPNQCPPGKVLVIEDGEARCLVKERVEIPFDSVVAKRDVTYGYD [G307D]
